Results on 40 molecules are retold here after patent US20250026849A1 (ARCELLX, published 2025).

To fix the notation:
B1: D domain SEQ ID NO: 887 (designed binder)
chain: MGSWTEFWHRLEAIDSRLWALGGSEAELAAFEKEIAAFESELQAYKGKGNPEVESLREHAAHIRVWLQAYRHN
B2: D domain SEQ ID NO: 885 (designed binder)
chain: B1 chain with T5Y, W8Y, H9L, E12D, S16H, S55M, V65K
B3: D domain SEQ ID NO: 908 (designed binder)
chain: MGSWYEFMYRLDAIEYRLFALGGSEAELAAFEKEIAAFESELQAYKGKGNPEVESLRIHAAMIREWLQAYRHN
B4: D domain SEQ ID NO: 859 (designed binder)
chain: B1 chain with T5F, W8Y, H9D, E12N, S16A, S55N, E58V, H62A, V65E
B5: D domain SEQ ID NO: 896 (designed binder)
chain: B1 chain with T5V, W8V, H9S, E12Y, S16F, S55A, H62Q, V65D
B6: D domain SEQ ID NO: 868 (designed binder)
chain: B1 chain with T5L, W8Y, E12N, E58D, V65E
B7: D domain SEQ ID NO: 904 (designed binder)
chain: B1 chain with T5Y, W8V, H9S, S16D, W19Y, S55M, E58Q, H62A, V65H
B8: D domain SEQ ID NO: 894 (designed binder)
chain: B1 chain with W8V, H9N, E12Y, S55G, E58T, H62K, V65H
B9: D domain SEQ ID NO: 892 (designed binder)
chain: B1 chain with W8H, H9Q, E12D, S16E, S55F, H62K, V65M
B10: D domain SEQ ID NO: 897 (designed binder)
chain: B1 chain with T5S, W8H, H9T, E12D, S16T, S55D, E58R, H62A, V65F
B11: D domain SEQ ID NO: 883 (designed binder)
chain: B1 chain with T5N, W8F, H9Q, E12N, S16E, S55D, E58Q, H62N, V65W
B12: D domain SEQ ID NO: 895 (designed binder)
chain: B1 chain with T5M, W8V, H9D, E12S, S16R, S55V, H62N, V65Q
B13: D domain SEQ ID NO: 886 (designed binder)
chain: B1 chain with T5Y, W8R, H9A, E12L, S16E, S55H, V65N, W66F
B14: D domain SEQ ID NO: 899 (designed binder)
chain: B1 chain with W8Y, H9Q, E12D, S16T, S55G, E58Q, H59Q, H62Q, V65A
B15: D domain SEQ ID NO: 888 (designed binder)
chain: B1 chain with W8Q, H9N, E12N, S16H, H62K
B16: D domain SEQ ID NO: 890 (designed binder)
chain: B1 chain with T5Y, W8Q, H9Q, S16T, S55E, V65H
B17: D domain SEQ ID NO: 893 (designed binder)
chain: B1 chain with T5L, W8S, H9Q, E12T, S55N, H62K, V65N
B18: D domain SEQ ID NO: 891 (designed binder)
chain: B1 chain with W8E, H9K, E12H, S16Y, S55D, H62A, V65H
B19: D domain SEQ ID NO: 878 (designed binder)
chain: B1 chain with T5S, W8V, H9K, E12D, S16Q, E58V, H62A, V65A
B20: D domain SEQ ID NO: 880 (designed binder)
chain: B1 chain with T5V, W8H, H9Y, E12Q, S16A, S55E, E58V, V65K
B21: D domain SEQ ID NO: 911 (designed binder)
chain: B3 chain with Y5V, M8V, Y9E, Y16F, S55K, I58N, M62H, E65S
B22: D domain SEQ ID NO: 884 (designed binder)
chain: B1 chain with T5Y, W8V, H9V, E12F, S16E, V65S
B23: D domain SEQ ID NO: 907 (designed binder)
chain: B3 chain with Y5I, M8K, Y16W, F19E, M62A, E65T
B24: D domain SEQ ID NO: 877 (designed binder)
chain: B1 chain with T5I, W8Y, H9W, S16Q, S55D, E58V, H62A, V65W
B25: D domain SEQ ID NO: 906 (designed binder)
chain: MGSWFEFFERLAAIEDRLWALGGSEAELAAFEKEIAAFESELQAYKGKGNPEVESLRVHAAAIRAFLQAYRHN
B26: D domain SEQ ID NO: 881 (designed binder)
chain: B1 chain with T5V, W8V, H9G, E12N, S16A, S55E, E58H, H62E, V65N
B27: D domain SEQ ID NO: 909 (designed binder)
chain: B1 chain with T5V, W8V, H9T, D15E, S16D, W19F, S55H, E58A, V65H
B28: D domain SEQ ID NO: 903 (designed binder)
chain: B1 chain with T5Y, W8Y, H9Y, S16N, W19I, S55V, H62K, V65E
B29: D domain SEQ ID NO: 882 (designed binder)
chain: MGSWNEFMDRLNAIDNRLWALGGSEAELAAFEKEIAAFESELQAYKGKGNPEVENLRKQAASIRLWLQAYRHN
B30: D domain SEQ ID NO: 910 (designed binder)
chain: B3 chain with M8V, Y9I, Y16D, S55H, I58V, M62H, E65V
B31: D domain SEQ ID NO: 905 (designed binder)
chain: B1 chain with T5Y, W8S, D15E, S16D, W19F, S55P, H62Y, V65H
B32: D domain SEQ ID NO: 879 (designed binder)
chain: B1 chain with T5E, W8Y, H9Y, S16A, W19F, S55E, E58V, V65D
B33: D domain SEQ ID NO: 902 (designed binder)
chain: B1 chain with T5Y, W8Y, H9K, S16N, W19Y, S55Y, H62A, V65H
B34: D domain SEQ ID NO: 889 (designed binder)
chain: B1 chain with T5S, W8F, H9K, S16R, S55E
B35: D domain SEQ ID NO: 876 (designed binder)
chain: B29 chain with N5F, M8Y, D9E, N16S, N55K, K58A, Q59H, L65T
B36: D domain SEQ ID NO: 898 (designed binder)
chain: B1 chain with T5L, W8H, H9S, E12D, S16T, S55K, H62A, V65H, W66Y
B37: D domain SEQ ID NO: 855 (designed binder)
chain: MGSWVEFHHRLFAIDERLWALGGSEAELAAFEKEIAAFESELQAYKGKGNPEVEYLRMVAAEIRYILQAYRHN
B38: D domain SEQ ID NO: 856 (designed binder)
chain: B37 chain with V5H, H8M, H9E, F12I, E16G, M58F, E62F, Y65D, I66V
B39: D domain SEQ ID NO: 857 (designed binder)
chain: MGSWKEFIQRLDAIHYRLWALGGSEAELAAFEKEIAAFESELQAYKGKGNPEVEYLRFVAAFIRFELQAYRHN
B40: D domain SEQ ID NO: 858 (designed binder)
chain: B39 chain with K5S, Q9F, Y16S, W19Q, V59I, F62E, F65L, E66K

Where a chain is given by its changes, count along the chain named.

In this experiment the target is T1, P26 (human, UniProt P02771 381-609, limits assumed).
T1 construct: also called AFP p26
T1 sequence: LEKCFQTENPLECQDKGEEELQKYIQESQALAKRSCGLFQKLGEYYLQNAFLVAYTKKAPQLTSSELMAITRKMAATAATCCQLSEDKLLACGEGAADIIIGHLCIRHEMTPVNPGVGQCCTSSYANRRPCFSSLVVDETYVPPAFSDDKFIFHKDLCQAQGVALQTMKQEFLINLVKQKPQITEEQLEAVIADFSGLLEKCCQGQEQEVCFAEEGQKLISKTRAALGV
The experiment is described as follows: ELISA, format not described. Set-up: unit not given here.
The molecule B1 gave an ELISA_avg of 13.2. The figure for B2 is 16; for B3 it is 19.4. The figure for B4 is 5.92; for B5 it is 29; for B6 it is 19.2. The figure for B7 is 33.1; for B8 it is 16.7. B9 yielded an ELISA_avg of 24.4. The figure for B10 is 23.5; for B11 it is 28.7.

Turning to B12, the ELISA_avg came to 32.1.

B13 yielded an ELISA_avg of 20.9. In turn, B14 had an ELISA_avg of 29.7. The figure for B15 is 30.5; for B16 it is 27.3; for B17 it is 30.4. The figure for B18 is 17.1; for B19 it is 27. The molecule B20 came in with an ELISA_avg of 14.8. With B21, the ELISA_avg was 23.8. The figure for B22 is 18.2; for B23 it is 18.3; for B24 it is 9.4. The figure for B25 is 20.3; for B26 it is 26. Take B27: the ELISA_avg is 11.7. The figure for B28 is 29.6. In the case of B29, the ELISA_avg was 10. The figure for B30 is 30.1. For B31, the ELISA_avg was 26. The figure for B32 is 30.3. The figure for B33 is 30.8. The figure for B34 is 30.2.

Turning to B35, the ELISA_avg was 27.1. The figure for B36 is 30.8; for B37 it is 21.4; for B38 it is 17.9. Consider B39, for which the ELISA_avg was found to be 18.4. The molecule B40 came in with an ELISA_avg of 28.3.
